± gives the standard deviation of the averaged measurements.
What was measured:
hTERT-HMEC = assay: percentage of EdU-negative (G0-arrested) nuclei per well, 72 h; higher = more G0 arrest; details: reference: sequence is the full UniProt precursor, the tested protein was the secreted form or ectodomain
MCF7 = assay: as above; details: reference: sequence is the full UniProt precursor, the tested protein was the secreted form or ectodomain
[1] = protein concentration 0.00742857 µM
[2] = protein concentration 0.0225 µM
[3] = protein concentration 0.0742857 µM
[4] = protein concentration 0.03125 µM
[5] = protein concentration 0.3125 µM
[6] = protein concentration 0.0257143 µM
[7] = protein concentration 0.257143 µM
[8] = protein concentration 0.01575 µM
[9] = protein concentration 0.1575 µM
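Further: secreted proteins added to cultured cells, EdU pulse at the end, nuclei found by Hoechst imaging, EdU status from nuclear versus surrounding ring intensity ratio, PBS as neutral control.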

Row | Sequence | percentage of EdU-negative (hTERT-HMEC; [2]) | percentage of EdU-negative (hTERT-HMEC; protein concentration 0.225 µM) | percentage of EdU-negative (MCF7; [2]) | percentage of EdU-negative (MCF7; protein concentration 0.225 µM) | also measured
1 | MRSLGALLLLLSACLAVSAGPVPTPPDNIQVQENFNISRIYGKWYNLAIGSTCPWLKKIMDRMTVSTLVLGEGATEAEISMTSTRWRKGVCEETSGAYEKTDTDGKFLYHKSKWNITMESYVVHTNYDEYAIFLTKKFSRHHGPTITAKLYGRAPQLRETLLQDFRVVAQGVGIPEDSIFTMADRGECVPGEQEPEPILIPRVRRAVLPQEEEGSGGGQLVTEVTKKEDSCQLGYSAGPCMGMTSRYFYNGTSMACETFQYGGCMGNGNNFVTEKECLQTCRTVAACNLPIVRGPCRAFIQLWAFDAVKGKCVLFPYGGCQGNGNKFYSEKECREYCGVPGDGDEELLRFSN | 5.59 ± 1.2% | 5.52 ± 0.57% | 23.9 ± 0.98% | 25.2 ± 1.6% | percentage of EdU-negative (hTERT-HMEC; [1]): 4.92 ± 0.19%; percentage of EdU-negative (hTERT-HMEC; [3]): 7.02 ± 1.1%; percentage of EdU-negative (MCF7; [1]): 27.22 ± 0.12%; percentage of EdU-negative (MCF7; [3]): 26 ± 2.5%
2 | MRSLLLLSAFCLLEAALAAEVKKPAAAAAPGTAEKLSPKAATLAERSAGLAFSLYQAMAKDQAVENILVSPVVVASSLGLVSLGGKATTASQAKAVLSAEQLRDEEVHAGLGELLRSLSNSTARNVTWKLGSRLYGPSSVSFADDFVRSSKQHYNCEHSKINFRDKRSALQSINEWAAQTTDGKLPEVTKDVERTDGALLVNAMFFKPHWDEKFHHKMVDNRGFMVTRSYTVGVMMMHRTGLYNYYDDEKEKLQIVEMPLAHKLSSLIILMPHHVEPLERLEKLLTKEQLKIWMGKMQKKAVAISLPKGVVEVTHDLQKHLAGLGLTEAIDKNKADLSRMSGKKDLYLASVFHATAFELDTDGNPFDQDIYGREELRSPKLFYADHPFIFLVRDTQSGSLLFIGRLVRPKGDKMRDEL | – | – | – | – | percentage of EdU-negative (hTERT-HMEC; [4]): 4.8 ± 0.84%; percentage of EdU-negative (hTERT-HMEC; [5]): 7.55 ± 1%; percentage of EdU-negative (MCF7; [4]): 26.6 ± 2.3%; percentage of EdU-negative (MCF7; [5]): 27.2 ± 1.1%
3 | MRTADREARPGLPSLLLLLLAGAGLSAASPPAAPRFNVSLDSVPELRWLPVLRHYDLDLVRAAMAQVIGDRVPKWVHVLIGKVVLELERFLPQPFTGEIRGMCDFMNLSLADCLLVNLAYESSVFCTSIVAQDSRGHIYHGRNLDYPFGNVLRKLTVDVQFLKNGQIAFTGTTFIGYVGLWTGQSPHKFTVSGDERDKGWWWENAIAALFRRHIPVSWLIRATLSESENFEAAVGKLAKTPLIADVYYIVGGTSPREGVVITRNRDGPADIWPLDPLNGAWFRVETNYDHWKPAPKEDDRRTSAIKALNATGQANLSLEALFQILSVVPVYNNFTIYTTVMSAGSPDKYMTRIRNPSRK | 5.28 ± 0.13% | 7.812 ± 0.044% | 25.7 ± 0.36% | 29.2 ± 3.5% | –
4 | MRTIAILAAILLVALQAQAESLQERADEATTQKQSGEDNQDLAISFAGNGLSALRTSGSQARATCYCRTGRCATRESLSGVCEISGRLYRLCCR | 4.85 ± 0.56% | 5.716 ± 0.019% | 27.1 ± 0.85% | 25.5 ± 1.3% | –
5 | MRTLTILTAVLLVALQAKAEPLQAEDDPLQAKAYEADAQEQRGANDQDFAVSFAEDASSSLRALGSTRAFTCHCRRSCYSTEYSYGTCTVMGINHRFCCL | 4.63 ± 0.29% | 5.921 ± 0.038% | 26.4 ± 0.96% | 26.4 ± 0.12% | –
6 | MRTQSLLLLGALLAVGSQLPAVFGRKKGEKSGGCPPDDGPCLLSVPDQCVEDSQCPLTRKCCYRACFRQCVPRVSVKLGSCPEDQLRCLSPMNHLCHKDSDCSGKKRCCHSACGRDCRDPARGTAPGCPGQANSDLGSVALHLSWGPTERVHDGRPGALPAGQHYLYQRWFQPSDNHWPADTSLQPIHPWFLLLGVKVHSLSSEEGLCITPVLCTTAIRASHPS [Q8TCV5] | – | – | – | – | percentage of EdU-negative (hTERT-HMEC; [6]): 5.766 ± 0.04%; percentage of EdU-negative (hTERT-HMEC; [7]): 5.25 ± 1.3%; percentage of EdU-negative (MCF7; [6]): 23.5 ± 0.78%; percentage of EdU-negative (MCF7; [7]): 28.7 ± 0.3%
7 | MRTVVLTMKASVIEMFLVLLVTGVHSNKETAKKIKRPKFTVPQINCDVKAGKIIDPEFIVKCPAGCQDPKYHVYGTDVYASYSSVCGAAVHSGVLDNSGGKILVRKVAGQSGYKGSYSNGVQSLSLPRWRESFIVLESKPKKGVTYPSALTYSSSKSPAAQAGETTKAYQRPPIPGTTAQPVTLMQLLAVTVAVATPTTLPRPSPSAASTTSIPRPQSVGHRSQEMDLWSTATYTSSQNRPRADPGIQRQDPSGAAFQKPVGADVSLGLVPKEELSTQSLEPVSLGDPNCKIDLSFLIDGSTSIGKRRFRIQKQLLADVAQALDIGPAGPLMGVVQYGDNPATHFNLKTHTNSRDLKTAIEKITQRGGLSNVGRAISFVTKNFFSKANGNRSGAPNVVVVMVDGWPTDKVEEASRLARESGINIFFITIEGAAENEKQYVVEPNFANKAVCRTNGFYSLHVQSWFGLHKTLQPLVKRVCDTDRLACSKTCLNSADIGFVIDGSSSVGTGNFRTVLQFVTNLTKEFEISDTDTRIGAVQYTYEQRLEFGFDKYSSKPDILNAIKRVGYWSGGTSTGAAINFALEQLFKKSKPNKRKLMILITDGRSYDDVRIPAMAAHLKGVITYAIGVAWAAQEELEVIATHPARDHSFFVDEFDNLHQYVPRIIQNICTEFNSQPRN [Q6UXI7] | – | – | – | – | percentage of EdU-negative (hTERT-HMEC; [8]): 5.15 ± 0.69%; percentage of EdU-negative (hTERT-HMEC; [9]): 6.71 ± 1.1%; percentage of EdU-negative (MCF7; [8]): 27 ± 0.45%; percentage of EdU-negative (MCF7; [9]): 23.4 ± 0.87%
